# Test results from patent US20210371484A1 (SYLUS, published 2021).
# T1: Soluble mouse EPOR chimera protein (mouse, UniProt P14753 25-249)
# T1 construct: Bought reagent (R&D Systems), amine-coupled to a carboxymethylated dextran SPR chip; it says only 'soluble' and 'chimera'; also called Receptor mouse EPOR chimera protein; erythropoietin receptor
# T1 sequence (looked up): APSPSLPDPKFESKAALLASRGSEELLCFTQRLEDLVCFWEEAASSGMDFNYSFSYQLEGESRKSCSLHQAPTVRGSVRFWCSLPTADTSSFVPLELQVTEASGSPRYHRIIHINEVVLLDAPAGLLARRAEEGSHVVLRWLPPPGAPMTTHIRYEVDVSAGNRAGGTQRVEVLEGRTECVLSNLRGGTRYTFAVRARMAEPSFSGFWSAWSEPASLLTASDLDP
# Target: T1, Soluble mouse EPOR chimera protein
# Assay: SPR (Reichert SR 7500C), mouse EPOR chimera amine-coupled on chip, peptide flowed at 5, 2.5 and 1.25 uM
# Procedure: Specifically, the real-time SPR analysis was performed using Reichert SPR Biosensor SR 7500C equipment (Reichert Inc., NY, USA). Receptor mouse EPOR chimera protein (Soluble mouse EPOR chimera protein)(R&D Systems, Minneapolis, Minn., USA) was covalently bonded to a chip (BR-1005-39, Pharmacia Biosensor AB) coated with carboxy methylated dextran matrix by an amine coupling procedure using an amine coupling kit (BR-1000-50, GE Healthcare, USA) according to the manufacturer's manual. Peptides having concentrations of 5, 2.5 and 1.25 μM according to the present disclosure and scrambled peptides were tested by flowing at a flow rate of 5 μl/minute. In addition, the experiment was independently repeated to increase the accuracy. In addition, DMSO was flowed at 5 μl/minute to normalize the signal. After sufficiently inducing the binding of the peptide of an aspect to the receptor, regeneration was induced by injecting 20 μl/minute of 25 mM acetic acid into a sensor chip.
row,Kd [µM],Binder
1,1550,LQLHVLKAVSGLRTLTMIRRALG (Synthetic 23-mer made as a monomer by solid phase synthesis; also called erythropoietin-induced peptide) [SY-2]
2,2160,LQLHVLKAVAGLRTLTMIRRALA (Synthetic 23-mer made as a monomer by solid phase synthesis; also called erythropoietin-induced peptide) [SY-3]
3,1410,LQLHVLKAVSGLRTLTTLLRALG (Synthetic 23-mer made as a monomer by solid phase synthesis; No terminal protecting group is stated for the peptide as tested; also called erythropoietin-induced peptide) [SY-1]
